This is an account of results in US20250121087A1 (INTOCELL, published 2025).

B1: AB2 (SA2107, CD276-040F10) (antibody, human IgG1, V domains shown)
VH: QVQLVESGAEVKKPGASVKLSCKASGYTFSSYWMHWVRQAPGQRLEWMGEINPGNGHTNYNEKFKSRVTITVDKSASTAYMELSSLRSEDTAVYYCVADPRRPKVPTALFVYWGQGTLVTVSS
VL: DIQMTQSPSSVSASVGDRVTISCRASQGIGTWLAWYQQKPGKAPRLLIYAASSLDSGVPSRFSASGSGTDFTLTISSLQPEDFATYYCQQAINFPITFGQGTRLEIK
notes: Whole human IgG
B2: AB2.1 (SA2107.01, CD276-040F10_IgG1_A1C) (antibody, V domains shown)
VH: B1 VH
VL: DIQMTQSPSSVSASVGDRVTISCRASQGIGTWLAWYQQKPGKAPRLLIYAASSLDSGVPSRFSASGSGTDFTLTISSLQPEDFATYYCQQAINFPITFGQGTRLEIKR
notes: Tested unconjugated; also called SA2107 A121C
B3: AB9 (SC0041, CD276-m8524), control anti-B7-H3 antibody (antibody, human IgG1, V domains shown)
VH: QVQLQQSGAEVKKPGSSVKVSCKASGGTFSSYAISWVRQAPGQGLEWMGGIIPILGIANYAQKFQGRVTITADESTSTAYMELSSLRSEDTAVYYCARGGSGSYHMDVWGKGTTVTVSS
VL: EIVLTQSPATLSLSPGERATLSCRASQSVSSYLAWYQQKPGQAPRLLIYDASNRATGIPARFSGSGSGTDFTLTISSLEPEDFAVYYCQQRSNWPPRITFGQGTRLEIKR
notes: Control antibody produced by the applicants; Human IgG1, Kappa-T2S
B4: AB3 (SA2103, CD276-039C05) (antibody, human IgG1, V domains shown)
VH: QVQLVESGAEVKKPGSSVKVSCKASGGTFSSYAISWVRQAPGQGLEWMGRIIPILGIANYAQKFQGRVTITADKSTSTAYMELSSLRSEDTAVYYCANGGDSSSWYTFDYWGQGTLITVSS
VL: DIQMTQSPSTLSASVGDKLTLTCRASQSISRWLAWYQQKPGKAPKLLIYKASYLQTGVPSRFSGSGTGTEFTLTISSLQPDDFATYYCQQYNTFPLTFAGGTKVEIK
notes: Whole human IgG
B5: AB5 (SA2563, CD276-039C05_LS_002A11) (antibody, human IgG1, V domains shown)
VH: B4 VH
VL: DIQMTQSPSTLSASVGDRLTITCRASQNINSWLAWYQQKPGKAPKLLIYKASYLQTGVPSRFSGSGSGTEFTLTITSLQPDDFASYYCQQYDSNPLTFGGGTKVEIK
notes: Whole human IgG; also called CD276-39C05_LS_002A11
B6: AB8 (SA2579, CD276-039C05_LS_002H07) (antibody, human IgG1, V domains shown)
VH: B4 VH
VL: B5 VL with L19V, N28S, N30D, S31N, Y53S, T56S, T76S
notes: Whole human IgG; also called CD276-39C05-LS-002H07
B7: AB4 (SA2545, CD276-039C05_LS_001E10) (antibody, human IgG1, V domains shown)
VH: B4 VH
VL: B5 VL with L19V, T20N, N28T, S67A, T76S, S85T, D92N, N94Y, P95S
notes: Whole human IgG; also called CD276-39C05-LS-001E10
B8: AB6 (SA2566, CD276-039C05_LS_002B07) (antibody, human IgG1, V domains shown)
VH: B4 VH
VL: DIQMTQSPSSLSASVGDRVTITCRASQGISSYLAWYQQKPGKAPKLLIYAASTLQSGVPSRFSGSGSGTDFTLTISSLQPEDFATYYCQQYYSFPLTFGGGTKVEIK
notes: Whole human IgG; also called CD276-39C05-LS-002B07
B9: AB7 (SA2571, CD276-039C05_LS_002D03) (antibody, human IgG1, V domains shown)
VH: B4 VH
VL: DIQMTQSPSTLSASVGDRVTITCRASETISSWLAWYQQKPGKAPKLLIYKASSLQSGVPSRFSGSGSGTEFTLTISSLQPDDFATYYCQQYYSYPITFGQGTRLEIK
notes: Whole human IgG; also called CD276-39C05_LS_002D03

Changes are numbered by the printed parent chain. In names and notes the source's numbering stands.

The target in the first assay is T1, Mouse B7-H3 (Sino biological Inc.) (mouse, UniProt Q8VE98 29-244, limits assumed).
T1 sequence (looked up): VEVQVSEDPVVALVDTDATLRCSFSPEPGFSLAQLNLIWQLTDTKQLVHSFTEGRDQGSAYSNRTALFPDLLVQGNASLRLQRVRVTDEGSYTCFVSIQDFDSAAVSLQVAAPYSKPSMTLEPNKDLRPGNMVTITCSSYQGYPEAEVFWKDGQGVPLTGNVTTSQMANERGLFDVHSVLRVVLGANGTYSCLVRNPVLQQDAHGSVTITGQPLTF
The assay is described as follows: SPR (Biacore 8K), antibody captured on anti-human Fc, antigen as analyte, 1:1 fit. On the procedure:
(§1) A Biacore 8K (GE Life science) instrument was used to measure the binding kinetics about several B7-H3 variants (analyte) binding to various mAbs (ligands). Antibodies were captured onto the immobilized anti-human Fc antibody (GE Life science). […] For binding kinetic measurements, the HBS-EP+ was used for running buffer (10 mM Hepes, pH7.4, 150 mM NaCl, 3 mM EDTA, 0.05% polysorbate20). […] After capturing ligand, various B7-H3 antigens were analyzed for 120 s and the dissociation was monitored for 600 s at a flow rate of 30 ul/min. […] For the kinetic analysis, 5 points of 2-fold diluted analytes were flown over the captured ligand ranging from 20 nM of human 4Ig B7-H3 (Y-Biologics Inc.), 320 nM of human 2Ig B7-H3 (Acrobiosystems), 40 nM of cynomolgus monkey B7-H3 (Sino biological Inc.), and 160 nM of mouse B7-H3 (Sino biological Inc.). Kinetic information was calculated by fitting data to a 1:1 binding model using Biacore Insight Evaluation software (GE Life Science) to determine ka (association constant), kd (dissociation constant), and KD (equilibrium dissociation constant).
For orientation: Surface plasmon resonance follows binding to a sensor surface in real time, without labels.
For the molecule B1, the Kd – broadly, a measure of binding affinity in units of concentration – was 47.3 nM; the koff (as a rule, a measure of how fast the partners let go of each other) was 0.0193 s⁻¹; the kon (usually the second-order rate constant of association) stood at 408000 M⁻¹ s⁻¹.

B2 registered a Kd of 42.4 nM, a koff of 0.0178 s⁻¹ and a kon of 420000 M⁻¹ s⁻¹.

On to B3, for which the Kd amounted to 49 nM, the koff turned out to be 0.0294 s⁻¹ and the kon worked out at 600000 M⁻¹ s⁻¹.

The target of another assay is T2, Human 4IgB7-H3 (Y-Biologics Inc.) (human, UniProt Q5ZPR3 29-466, limits assumed).
T2 construct: 4Ig isoform
T2 sequence (looked up): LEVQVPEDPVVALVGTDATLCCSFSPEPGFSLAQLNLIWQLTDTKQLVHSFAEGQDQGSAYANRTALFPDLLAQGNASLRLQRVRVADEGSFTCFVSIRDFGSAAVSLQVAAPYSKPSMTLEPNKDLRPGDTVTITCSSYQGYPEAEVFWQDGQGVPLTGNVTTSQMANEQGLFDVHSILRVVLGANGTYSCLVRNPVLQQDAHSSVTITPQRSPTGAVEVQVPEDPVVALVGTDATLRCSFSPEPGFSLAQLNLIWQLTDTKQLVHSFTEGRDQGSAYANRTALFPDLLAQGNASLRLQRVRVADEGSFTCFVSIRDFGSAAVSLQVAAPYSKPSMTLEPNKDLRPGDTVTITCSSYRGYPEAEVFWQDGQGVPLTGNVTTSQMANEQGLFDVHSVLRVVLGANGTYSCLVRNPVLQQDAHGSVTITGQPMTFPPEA
Described as above. On the procedure:
as §1
In turn, B1 had a Kd of 0.446 nM, a koff of 0.000199 s⁻¹ and a kon of 446000 M⁻¹ s⁻¹.

B2 displayed a Kd of 1.06 nM, a koff of 0.00047 s⁻¹ and a kon of 442000 M⁻¹ s⁻¹.

Regarding B3, the Kd was 0.518 nM, the koff was 0.000617 s⁻¹ and the on-rate (kon) came out at 1.19e+06 M⁻¹ s⁻¹.

The next assay deals with T3, Human 2IgB7-H3 (Acrobiosystems) (human, UniProt Q5ZPR3-2 29-245, limits assumed).
T3 construct: 2Ig isoform (the short splice form of the same UniProt entry)
T3 sequence (looked up): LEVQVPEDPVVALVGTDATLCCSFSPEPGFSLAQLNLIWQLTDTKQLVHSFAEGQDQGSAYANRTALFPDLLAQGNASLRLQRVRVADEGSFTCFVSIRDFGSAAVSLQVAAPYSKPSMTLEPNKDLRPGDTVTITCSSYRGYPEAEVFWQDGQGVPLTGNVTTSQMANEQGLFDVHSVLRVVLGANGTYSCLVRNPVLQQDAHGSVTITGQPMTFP
The assay is described as above. On the procedure: as §1
The molecule B1 yielded a Kd of 25 nM, a koff of 0.00515 s⁻¹ and a kon of 206000 M⁻¹ s⁻¹.

As for B2, the Kd stood at 21.6 nM, the koff turned out to be 0.00469 s⁻¹ and the kon turned out to be 217000 M⁻¹ s⁻¹.

As to B3, the affinity, expressed as Kd, was 208 nM; the koff came out at 0.107 s⁻¹; the kon came to 515000 M⁻¹ s⁻¹.

For a further assay, the target named is T4, Cyno B7-H3 (Sino biological Inc.) (cynomolgus monkey).
T4 construct: also called cynomolgus monkey B7-H3
Described as above. On the procedure:
as §1
The molecule B1 had a Kd of 0.919 nM, a koff of 0.000442 s⁻¹ and a kon of 481000 M⁻¹ s⁻¹.

Consider B2, for which the Kd is 1.05 nM, the dissociation rate constant (koff) came to 0.000504 s⁻¹ and the on-rate (kon) stood at 480000 M⁻¹ s⁻¹.

B3 yielded a Kd of 0.278 nM, a koff of 0.000242 s⁻¹ and a kon of 871000 M⁻¹ s⁻¹.

The target of the next assay is T5, human B7-H3 (Y-Biologics Inc.) (human, UniProt Q5ZPR3 29-466).
T5 chain: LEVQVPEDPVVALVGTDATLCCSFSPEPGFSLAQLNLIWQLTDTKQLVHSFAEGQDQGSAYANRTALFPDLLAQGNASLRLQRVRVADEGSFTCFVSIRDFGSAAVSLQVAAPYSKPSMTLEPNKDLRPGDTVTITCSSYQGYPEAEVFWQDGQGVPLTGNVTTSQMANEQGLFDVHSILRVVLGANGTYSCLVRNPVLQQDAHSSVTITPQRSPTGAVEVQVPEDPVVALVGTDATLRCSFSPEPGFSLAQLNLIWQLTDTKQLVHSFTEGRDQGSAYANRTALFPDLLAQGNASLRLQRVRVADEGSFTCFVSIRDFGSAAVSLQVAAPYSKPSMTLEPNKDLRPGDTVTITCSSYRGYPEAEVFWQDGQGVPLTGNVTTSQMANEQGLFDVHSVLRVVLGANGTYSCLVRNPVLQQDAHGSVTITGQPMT
The assay can be described thus: BLI (Octet QKe), antibody on AHC biosensor, human B7-H3 as analyte, 1:1 global fit. (BLI is a label-free optical method that tracks binding on a fibre tip over time.)
For B4, the Kd stood at 0.04 nM, the koff is 3e-05 s⁻¹ and the kon came to 600000 M⁻¹ s⁻¹.

B5: binding was put at a Kd of 0.1 nM, the koff was found to be 0.0002 s⁻¹ and the kon is 1e+06 M⁻¹ s⁻¹.

As for B6, the Kd was determined as 0.3 nM, the off-rate (koff) came out at 0.0003 s⁻¹ and the kon came to 900000 M⁻¹ s⁻¹.

Take B7: the affinity, expressed as Kd, was 0.06 nM; the koff came to 7e-05 s⁻¹; the kon turned out to be 1e+06 M⁻¹ s⁻¹.

Molecule B8 gave a Kd of 0.2 nM, an off-rate constant (koff) of 0.0006 s⁻¹ and a kon of 3e+06 M⁻¹ s⁻¹.

Turning to B9, the Kd is 0.3 nM, the koff turned out to be 0.0005 s⁻¹ and the kon amounted to 2e+06 M⁻¹ s⁻¹.

Regarding B1, binding was characterised by a dissociation constant (Kd) of 0.05 nM, the koff is 4e-05 s⁻¹ and the kon stood at 700000 M⁻¹ s⁻¹.

The molecule B2 gave a Kd of 0.05 nM, a koff of 2e-05 s⁻¹ and a kon of 500000 M⁻¹ s⁻¹.

B3 yielded a Kd of 0.3 nM, a koff of 0.0002 s⁻¹ and a kon of 500000 M⁻¹ s⁻¹.
